Source: article PMC8484483 (Scientific Reports, 2021)

Experiments:
Conditions in all cases: both partners purified
[1] = molecular target: T1, recombinant TNFR2 extracellular domain fused with rabbit IgG1 Fc (Homo sapiens, UniProt P20333); experiment: SPR; Biacore T200; antibodies (1 ug/mL, ca. 400 RU) captured on a CM5 chip with anti-human IgG Fc; TNFR2-rFc and CD30-rFc (10 nM) run one after the other as 1st and 2nd analytes, in both orders; PBS, 0.05% Tween 20, pH 7.4, 25 °C
T1 construct: TNFR2, human, extracellular domain; also called TNFR2-rFc; source: Expi293F, transfected; purified on Protein A (as the chimeric antibodies)
T1 sequence (P20333 23-257): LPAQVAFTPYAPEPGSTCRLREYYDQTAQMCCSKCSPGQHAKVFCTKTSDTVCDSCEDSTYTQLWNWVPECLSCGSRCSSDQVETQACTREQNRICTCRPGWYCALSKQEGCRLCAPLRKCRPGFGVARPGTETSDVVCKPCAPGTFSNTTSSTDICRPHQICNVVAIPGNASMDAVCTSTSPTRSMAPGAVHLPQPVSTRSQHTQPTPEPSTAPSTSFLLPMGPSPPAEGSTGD

[2] = molecular target: T2, recombinant CD30 extracellular domain fused with rabbit IgG1 Fc (Homo sapiens, UniProt P28908); experiment: as above
T2 construct: CD30, human, extracellular domain; also called CD30-rFc; source: Expi293F, transfected; purified on Protein A (as the chimeric antibodies)
T2 sequence (P28908 19-385): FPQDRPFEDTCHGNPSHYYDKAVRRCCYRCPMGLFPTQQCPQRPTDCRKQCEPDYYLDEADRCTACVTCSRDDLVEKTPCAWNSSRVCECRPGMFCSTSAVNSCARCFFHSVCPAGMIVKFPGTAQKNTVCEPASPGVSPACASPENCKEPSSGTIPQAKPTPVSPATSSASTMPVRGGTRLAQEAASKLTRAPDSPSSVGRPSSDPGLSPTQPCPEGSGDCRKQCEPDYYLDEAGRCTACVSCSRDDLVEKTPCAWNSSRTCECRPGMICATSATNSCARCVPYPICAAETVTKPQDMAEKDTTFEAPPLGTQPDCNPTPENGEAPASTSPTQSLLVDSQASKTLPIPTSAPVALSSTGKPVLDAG

[3] = molecular target: T2, recombinant CD30 extracellular domain …; experiment: flow cytometry on cells; crosslinking: antigen-expressing cells incubated with mAb or BsAb (10 ug/mL), washed twice, then CD30-rFc or TNFR2-rFc (50 ng/mL) 1 h on ice; rFc detected with R-PE anti-rabbit IgG; the antibody is held on the cells by its other arm

B1: anti-TNFR2 TR109, human chimeric monoclonal antibody (antibody, V domains shown)
VH: QVQLKESGPGLVAPSQSLSITCTVSGFSLTVYGVNWVRQPPGKGLEWLGMIWGDGSTAYNSALKSRLTITKDNSKTQVFLKMNSLQTDDTARYYCARDGRRYALDYWGQGTSVTVSS
VL: DIVLTQSPTSLAVSLGQRATISCRASESVDSYGDSFLHWYQQKPGQPPILLIYRASNLDSGIPARFSGSGSRTDFTLTINPVEADDVATYYCQQSNEDPYTFGGGTKLEIK
**Q.** Does B1 bind [1]?
**A.** binds

**Q.** Does B1 bind [2]?
**A.** no binding (tested: 10 nM)

B2: anti-CD30 T104, human chimeric monoclonal antibody (antibody, V domains shown)
VH: QIQLVQSGPELKKPGETVKISCKASGYTFTDYSMHWVKQAPGKGLKWMGWINTETGEPTYADDFKGRFAFSLETSASTAYLQINNLKNEDTATYFCTEGYVFDFWGQGTTLTVSS
VL: DILLTQSPAILSVSPGERVSFSCRASRSIGTSIHWYQQRTNGSPRLLINYASESISGIPSRFSGSGSGTDFTLSINSVESEDIADYYCQQSNSWPLTFGAGTKLELK
**Q.** What does the source list for B2?
**A.** binding result [1]: no binding (tested: 10 nM); binding result [3]: binds

B3: C-cleaved side product of the IMPTS reaction, monovalent Fab^CD30-Fc (SEC peak P2) (antibody, V domains shown)
VH: QIQLVQSGPELKKPGETVKISCKASGYTFTDYSMHWVKQAPGKGLKWMGWINTETGEPTYADDFKGRFAFSLETSASTAYLQINNLKNEDTATYFCTEGYVFDFWGQGTTLTVSS
VL: DILLTQSPAILSVSPGERVSFSCRASRSIGTSIHWYQQRTNGSPRLLINYASESISGIPSRFSGSGSGTDFTLSINSVESEDIADYYCQQSNSWPLTFGAGTKLELK
**Q.** Does B3 bind [1]?
**A.** no binding (tested: 10 nM)

**Q.** Does B3 bind [2]?
**A.** binds
